# Test results as given in patent publication US20200317768A1 (published 2020).
# T1: human FcγRIIb extracellular domain, C-terminal His-tag (human, UniProt P31994 43-217)
# T1 construct: also called human FcgRIIb; FcgRIIb
# T1 sequence: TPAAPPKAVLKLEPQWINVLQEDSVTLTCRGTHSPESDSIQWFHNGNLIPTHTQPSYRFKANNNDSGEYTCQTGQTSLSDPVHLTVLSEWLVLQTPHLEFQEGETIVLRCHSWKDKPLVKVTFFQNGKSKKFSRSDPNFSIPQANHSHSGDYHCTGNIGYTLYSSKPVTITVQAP
# T2: cynomolgus monkey FcγRIIa1 extracellular domain, C-terminal His-tag (cynomolgus monkey)
# T2 construct: also called cyno FcγRIIa1; cynoFcgRIIa1
# T2 chain: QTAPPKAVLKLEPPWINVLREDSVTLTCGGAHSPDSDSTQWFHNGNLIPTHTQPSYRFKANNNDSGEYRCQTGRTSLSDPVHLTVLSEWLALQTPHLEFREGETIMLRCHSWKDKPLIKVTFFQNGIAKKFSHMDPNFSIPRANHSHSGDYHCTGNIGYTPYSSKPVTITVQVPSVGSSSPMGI
# T3: cynomolgus monkey FcγRIIa2 extracellular domain, C-terminal His-tag (cynomolgus monkey)
# T3 construct: also called cyno FcγRIIa2; cynoFcgRIIa2
# T3 chain: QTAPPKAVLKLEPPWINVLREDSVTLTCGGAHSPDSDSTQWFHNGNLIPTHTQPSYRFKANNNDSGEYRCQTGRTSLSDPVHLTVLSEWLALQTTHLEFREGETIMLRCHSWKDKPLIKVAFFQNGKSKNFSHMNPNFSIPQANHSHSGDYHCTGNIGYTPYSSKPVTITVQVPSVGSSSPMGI
# T4: human FcγRIIaH extracellular domain, C-terminal His-tag (human, UniProt P12318 34-217)
# T4 construct: also called human FcγRIIa (type H); FcgRIIaH
# T4 sequence: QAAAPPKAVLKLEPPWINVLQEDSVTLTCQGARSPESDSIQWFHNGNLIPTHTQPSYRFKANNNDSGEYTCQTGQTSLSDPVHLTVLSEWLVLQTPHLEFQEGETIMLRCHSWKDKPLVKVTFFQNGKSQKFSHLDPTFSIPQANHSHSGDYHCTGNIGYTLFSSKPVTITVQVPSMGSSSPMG
# T5: cynomolgus monkey FcγRIIb extracellular domain, C-terminal His-tag (cynomolgus monkey)
# T5 construct: also called cyno FcγRIIb; cynoFcγRIIb
# T5 chain: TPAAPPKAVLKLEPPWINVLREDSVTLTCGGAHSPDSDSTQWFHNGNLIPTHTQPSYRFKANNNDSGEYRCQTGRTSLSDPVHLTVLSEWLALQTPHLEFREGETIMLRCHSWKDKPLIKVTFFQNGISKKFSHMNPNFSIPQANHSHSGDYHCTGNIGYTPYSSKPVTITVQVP
# T6: cynomolgus monkey FcγRIIIaS extracellular domain, C-terminal His-tag (cynomolgus monkey, UniProt Q8SPW2 21-206 at identity 1.00))
# T6 construct: also called cyno FcγRIIIaS; cynoFcγRIIIaS
# T6 chain: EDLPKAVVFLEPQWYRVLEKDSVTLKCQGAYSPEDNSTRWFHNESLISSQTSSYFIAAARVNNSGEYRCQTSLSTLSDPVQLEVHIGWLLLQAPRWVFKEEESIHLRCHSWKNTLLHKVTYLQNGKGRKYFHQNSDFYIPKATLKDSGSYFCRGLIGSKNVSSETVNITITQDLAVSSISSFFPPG
# T7: cynomolgus monkey FcγRIIa3 extracellular domain, C-terminal His-tag (cynomolgus monkey)
# T7 construct: also called cyno FcγRIIa3; cynoFcgRIIa3
# T7 chain: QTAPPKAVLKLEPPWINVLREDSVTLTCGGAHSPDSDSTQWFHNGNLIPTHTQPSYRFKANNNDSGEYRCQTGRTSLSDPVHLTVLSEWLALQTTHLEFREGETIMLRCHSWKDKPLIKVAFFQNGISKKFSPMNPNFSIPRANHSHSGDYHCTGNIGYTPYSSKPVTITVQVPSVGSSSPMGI
# Columns and labels:
# Assay in all cases: SPR (Biacore); KD of SG1 / KD of variant;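 also: relative to parent M103205H795-SG1 carrying the SG1 human heavy chain constant region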
# [1] = target: T1, human FcγRIIb extracellular domain, …
# Procedure: (§1) The kinetic analysis of interactions between these antibodies and FcγR was carried out using BIACORE® T200 or BIACORE® 4000 (GE Healthcare). HBS-EP+ (GE Healthcare) was used as the running buffer, and the measurement temperature was set to 25° C. A chip produced by immobilizing Protein A. Protein A/G or mouse anti-human IgG kappa light chain (BD Biosciences) onto a Series S Sensor Chip CM4 or CM5 (GE Healthcare) by the amine-coupling method was used. […] After the measurement, the antibody captured on the chip was washed off by allowing reaction with 10 mM glycine-HCl, pH1.5 and 25 mM NaOH so that the chip was regenerated and used repeatedly. The sensorgrams obtained as measurement results were analyzed by the 1:1 Langmuir binding model using the BIACORE® Evaluation Software to calculate the binding rate constant ka (L/mol/s) and dissociation rate constant kd (l/s), and the dissociation constant KD (mol/L) was calculated from these values. […] Regarding such interactions, KD values were calculated using the following 1:1 binding model described in BIACORE® T100 Software Handbook BR1006-48 Edition AE.
# (§2) The behavior of interacting molecules according to the 1:1 binding model on BIACORE® can be described by Equation 1: Req=C·R max/(KD+C)+RI, wherein, Req is a plot of steady-state binding levels to analyte concentration. C is concentration, RI is bulk refractive index contribution in the sample, and Rmax is analyte binding capacity of the surface. When this equation is rearranged, KD can be expressed as Equation 2: KD=C·Rmax/(Req−RI)−C. KD can be calculated by substituting the values of Rmax, RI, and C into Equation 1 or Equation 2. From the current measurement conditions, RI=0, C=2 μmol/L can be used.
# [2] = target: T2, cynomolgus monkey FcγRIIa1 …
# Procedure: as §1, §2
# [3] = target: T3, cynomolgus monkey FcγRIIa2 …
# Procedure: as §1, §2
# [4] = target: T4, human FcγRIIaH extracellular domain, …
# Procedure: as §1, §2
# [5] = target: T5, cynomolgus monkey FcγRIIb extracellular …
# Procedure: as §1, §2
# [6] = target: T8, human FcγRIIIaV extracellular domain, C-terminal His-tag (human, UniProt P08637 17-208)
# T8 construct: also called human FcgRIIIaV; FcgRIIIaV
# T8 sequence (P08637 17-208 F176V): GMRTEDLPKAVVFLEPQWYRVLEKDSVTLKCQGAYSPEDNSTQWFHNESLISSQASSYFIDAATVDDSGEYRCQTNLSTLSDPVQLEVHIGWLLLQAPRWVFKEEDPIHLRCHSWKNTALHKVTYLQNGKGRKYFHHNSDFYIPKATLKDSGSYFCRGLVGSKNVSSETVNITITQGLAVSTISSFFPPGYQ
# Procedure: as §1, §2
# [7] = target: T6, cynomolgus monkey FcγRIIIaS …
# Procedure: as §1, §2
# [8] = target: T7, cynomolgus monkey FcγRIIa3 …
# Procedure: as §1, §2
Binder,KD fold (SG1 = 1) [1],KD fold (SG1 = 1) [2],KD fold (SG1 = 1) [3],KD fold (SG1 = 1) [4],KD fold (SG1 = 1) [5],KD fold (SG1 = 1) [6],KD fold (SG1 = 1) [7],KD fold (SG1 = 1) [8]
"M103205H795-MY050/M103202L889-SK1 (antibody, human IgG1, kappa, Substitutions introduced into M103205H795-SG1; expressed with M103202L889-SK1 as light chain) heavy: QVTLKESGPVLVKPTETLTLTCTVSGIDLSHDDISWVRQAPGKGLEWVGIISYAGSTYYASWAKGRLTISKDTSKNQVVLTMTNMDPVDTATYYCARGVPAYSHGGDLWGQGTLVTVSSASTKGPSVFPLAPSSKSTSGGTAALGCLVKDYFPEPVTVSWNSGALTSGVHTFPAVLQSSGLYSLSSVVTVPSSSLGTQTYICNVNHKPSNTKVDKKVEPKSCDKTHTCPPCPAPELLNGPSVFLFPPKPKDTLMISRTPEVTCVVVDVAEEDPEVKFNWYVDGVEVHNAKTKPREEQYNSTYRVVSVLTVLHQDWLNGKEYKCKVSNKALPAPIEKTISKAKGQPREPQVYTLPPSREEMTKNQVSLTCLVKGFYPSDIAVEWESNGQPENNYKTTPPVLDSDGSFFLYSKLTVDKSRWQQGNVFSCSVMHEALHNHYTQKSLSLSP light: DIVMTQSPATLSLSPGERATLSCTSSQSVYHANWLSWFQQKPGQPPKLLIYWASTLAYGVPSRFSGSGSGTDFTLTISSLQPEDAATYYCAGGYGGGRYAFGQGTKVEIKRTVAAPSVFIFPPSDEQLKSGTASVVCLLNNFYPREAKVQWKVDNALQSGNSQESVTEQDSKDSTYSLSSTLTLSKADYEKHKVYACEVTHQGLSSPVTKSFNRGEC",6.1 fold,0.7 fold,1.2 fold,0.5 fold,3.3 fold,0.25 fold,0.21 fold,0.9 fold
"M103205H795-MY051/M103202L889-SK1 (antibody, human IgG1, kappa, Substitutions introduced into M103205H795-SG1; expressed with M103202L889-SK1 as light chain) heavy: QVTLKESGPVLVKPTETLTLTCTVSGIDLSHDDISWVRQAPGKGLEWVGIISYAGSTYYASWAKGRLTISKDTSKNQVVLTMTNMDPVDTATYYCARGVPAYSHGGDLWGQGTLVTVSSASTKGPSVFPLAPSSKSTSGGTAALGCLVKDYFPEPVTVSWNSGALTSGVHTFPAVLQSSGLYSLSSVVTVPSSSLGTQTYICNVNHKPSNTKVDKKVEPKSCDKTHTCPPCPAPELLNGPSVFLFPPKPKDTLMISRTPEVTCVVVDVSEEDGEVKFNWYVDGVEVHNAKTKPREEQYNSTYRVVSVLTVLHQDWLNGKEYKCKVSNKALPAPIEKTISKAKGQPREPQVYTLPPSREEMTKNQVSLTCLVKGFYPSDIAVEWESNGQPENNYKTTPPVLDSDGSFFLYSKLTVDKSRWQQGNVFSCSVMHEALHNHYTQKSLSLSP light: DIVMTQSPATLSLSPGERATLSCTSSQSVYHANWLSWFQQKPGQPPKLLIYWASTLAYGVPSRFSGSGSGTDFTLTISSLQPEDAATYYCAGGYGGGRYAFGQGTKVEIKRTVAAPSVFIFPPSDEQLKSGTASVVCLLNNFYPREAKVQWKVDNALQSGNSQESVTEQDSKDSTYSLSSTLTLSKADYEKHKVYACEVTHQGLSSPVTKSFNRGEC",2.3 fold,0.7 fold,1.1 fold,0.3 fold,0.9 fold,0.11 fold,0.17 fold,0.9 fold
"M103205H795-MY101/M103202L889-SK1 (antibody, human IgG1, kappa, also called MS1032LO06-MY101) heavy: QVTLKESGPVLVKPTETLTLTCTVSGIDLSHDDISWVRQAPGKGLEWVGIISYAGSTYYASWAKGRLTISKDTSKNQVVLTMTNMDPVDTATYYCARGVPAYSHGGDLWGQGTLVTVSSASTKGPSVFPLAPSSKSTSGGTAALGCLVKDYFPEPVTVSWNSGALTSGVHTFPAVLQSSGLYSLSSVVTVPSSSLGTQTYICNVNHKPSNTKVDKKVEPKSCDKTHTCPPCPAPELLNGPSVFLFPPKPKDTLMISRTPEVTCVVVDVSEEDPEVKFNWYVDGVEVHNAKTKPREEQYNSTYRVVSVLTVLHQDWLNGKEYKCKVSNKALPKPIEKTISKAKGQPREPQVYTLPPSREEMTKNQVSLTCLVKGFYPSDIAVEWESNGQPENNYKTTPMVLDSDGSFFLYSKLTVDKSRWQQGNVFSCSVMHEALHNHYTQKSLSLSP light: DIVMTQSPATLSLSPGERATLSCTSSQSVYHANWLSWFQQKPGQPPKLLIYWASTLAYGVPSRFSGSGSGTDFTLTISSLQPEDAATYYCAGGYGGGRYAFGQGTKVEIKRTVAAPSVFIFPPSDEQLKSGTASVVCLLNNFYPREAKVQWKVDNALQSGNSQESVTEQDSKDSTYSLSSTLTLSKADYEKHKVYACEVTHQGLSSPVTKSFNRGEC",9.4 fold,2.9 fold,4.3 fold,1.4 fold,5.1 fold,0.07 fold,0.11 fold,4.7 fold
"M103205H795-MY052/M103202L889-SK1 (antibody, human IgG1, kappa, Substitutions introduced into M103205H795-SG1; expressed with M103202L889-SK1 as light chain) heavy: QVTLKESGPVLVKPTETLTLTCTVSGIDLSHDDISWVRQAPGKGLEWVGIISYAGSTYYASWAKGRLTISKDTSKNQVVLTMTNMDPVDTATYYCARGVPAYSHGGDLWGQGTLVTVSSASTKGPSVFPLAPSSKSTSGGTAALGCLVKDYFPEPVTVSWNSGALTSGVHTFPAVLQSSGLYSLSSVVTVPSSSLGTQTYICNVNHKPSNTKVDKKVEPKSCDKTHTCPPCPAPELLNGPSVFLFPPKPKDTLMISRTPEVTCVVVDVSEEDPEVKFNWYVDGVEVHNAKTKPREEQYNSTYRVVSVLTVLHQDWLNGKEYKCKVSNKALPAPIEKTISKAKGQPREPQVYTLPPSREEMTKNQVSLTCLVKGFYPSDIAVEWESNGQPENNYKTTPMVLDSDGSFFLYSKLTVDKSRWQQGNVFSCSVMHEALHNHYTQKSLSLSP light: DIVMTQSPATLSLSPGERATLSCTSSQSVYHANWLSWFQQKPGQPPKLLIYWASTLAYGVPSRFSGSGSGTDFTLTISSLQPEDAATYYCAGGYGGGRYAFGQGTKVEIKRTVAAPSVFIFPPSDEQLKSGTASVVCLLNNFYPREAKVQWKVDNALQSGNSQESVTEQDSKDSTYSLSSTLTLSKADYEKHKVYACEVTHQGLSSPVTKSFNRGEC",6.4 fold,2.8 fold,3.4 fold,0.8 fold,8.9 fold,0.18 fold,0.14 fold,4.4 fold
